Molecular target: T1, recombinant, soluble murine Jagged1 (mouse, UniProt Q9QXX0)
T1 construct: Jagged1, mouse, recombinant soluble form; also called recombinant mouse Jagged1
Test: ELISA; plates coated with 500 ng/mL recombinant soluble murine Jagged1 in PBS; antibodies titrated 2000-15.63 ng/mL in PBSTM, 1.5 h at RT; detected with ALP-conjugated goat anti-murine Fc
Conditions: both partners purified

T1 sequence (Q9QXX0 34-1067): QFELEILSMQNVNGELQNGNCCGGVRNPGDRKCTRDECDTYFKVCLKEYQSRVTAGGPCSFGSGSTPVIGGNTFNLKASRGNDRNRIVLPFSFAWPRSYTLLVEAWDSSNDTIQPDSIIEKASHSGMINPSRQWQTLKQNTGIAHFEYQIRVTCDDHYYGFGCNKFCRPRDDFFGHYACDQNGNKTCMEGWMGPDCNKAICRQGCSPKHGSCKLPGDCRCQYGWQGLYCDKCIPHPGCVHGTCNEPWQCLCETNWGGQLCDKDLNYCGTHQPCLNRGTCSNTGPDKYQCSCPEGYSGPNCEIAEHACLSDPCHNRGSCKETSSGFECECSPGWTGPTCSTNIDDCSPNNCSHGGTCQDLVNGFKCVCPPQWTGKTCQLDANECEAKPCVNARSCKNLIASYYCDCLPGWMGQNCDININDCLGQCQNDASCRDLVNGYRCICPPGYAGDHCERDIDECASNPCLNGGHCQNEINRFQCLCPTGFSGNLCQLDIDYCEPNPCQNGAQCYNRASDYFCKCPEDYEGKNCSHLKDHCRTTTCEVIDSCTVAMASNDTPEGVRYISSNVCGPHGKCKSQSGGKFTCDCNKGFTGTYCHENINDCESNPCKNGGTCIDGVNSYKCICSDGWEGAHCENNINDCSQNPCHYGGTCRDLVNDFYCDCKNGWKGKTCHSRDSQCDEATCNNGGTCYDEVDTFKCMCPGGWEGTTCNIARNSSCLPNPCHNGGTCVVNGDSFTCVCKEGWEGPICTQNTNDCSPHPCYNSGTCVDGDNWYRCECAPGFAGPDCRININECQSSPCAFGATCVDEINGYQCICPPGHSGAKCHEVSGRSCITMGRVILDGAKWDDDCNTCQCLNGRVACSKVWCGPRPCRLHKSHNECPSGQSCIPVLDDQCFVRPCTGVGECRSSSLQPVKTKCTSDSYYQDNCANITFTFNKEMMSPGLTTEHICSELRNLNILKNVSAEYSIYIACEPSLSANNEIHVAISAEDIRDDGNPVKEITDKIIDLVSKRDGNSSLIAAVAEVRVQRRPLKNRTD

| Binder | binding result |
| --- | --- |
| anti-JAG1.b70 mouse immunoglobulin G2a (mIgG2a), WT (antibody, V domains shown, variable heavy domain of anti-JAG1.b70; constant domains of the mouse IgG2a heavy chain, wild type; variable light domain of anti-JAG1.b70; constant domain of the murine kappa light chain; Phage-display selected antibody in mIgG2a format; A batch provided by Genentech was used in animals; WT and PGLALA variants for the ELISAs were produced in HEK293E; The constant domains of the Fab in PDB 5BO1 …) VH: EVQLVESGGGLVQPGGSLRLSCAASGFTFSNYGIHWVRQAPGKGLEWVGWITPDGGYTDYADSVKGRFTISADTSKNTAYLQMNSLRAEDTAVYYCARAGTLFAYWGQGTLVTVSS VL: DIQMTQSPSSLSASVGDRVTITCRASQDVSTAVAWYQQKPGKAPKLLIYSASFLYSGVPSRFSGSGSGTDFTLTISSLQPEDFATYYCQQYYTTATTFGQGTKVEIK | binds |
| anti-JAG1.b70 mIgG2a, PGLALA (P329G, L234A, L235A) (antibody, V domains shown, variable heavy domain as in the heavy chain of m1; constant domains of the mouse IgG2a heavy chain with PGLALA in the CH2 domain; variable light domain as in the light chain of m1; constant domain of the murine kappa light chain; also called PGLALA-engineered anti-JAG1; effector-negative anti-JAG1; source: HEK293E, transient co-transfection, purified (anti-murine kLC CaptureSelect, SEC)) VH: EVQLVESGGGLVQPGGSLRLSCAASGFTFSNYGIHWVRQAPGKGLEWVGWITPDGGYTDYADSVKGRFTISADTSKNTAYLQMNSLRAEDTAVYYCARAGTLFAYWGQGTLVTVSS VL: DIQMTQSPSSLSASVGDRVTITCRASQDVSTAVAWYQQKPGKAPKLLIYSASFLYSGVPSRFSGSGSGTDFTLTISSLQPEDFATYYCQQYYTTATTFGQGTKVEIK | binds |
